Three molecules from article PMC6445466 (2019) can be followed below.

B1: human C1r, full-length enzyme (enzyme)
chain: SIPIPQKLFGEVTSPLFPKPYPNNFETTTVITVPTGYRVKLVFQQFDLEPSEGCFYDYVKISADKKSLGRFCGQLGSPLGNPPGKKEFMSQGNKMLLTFHTDFSNEENGTIMFYKGFLAYYQAVDLDECASRSKSGEEDPQPQCQHLCHNYVGGYFCSCRPGYELQEDTHSCQAECSSELYTEASGYISSLEYPRSYPPDLRCNYSIRVERGLTLHLKFLEPFDIDDHQQVHCPYDQLQIYANGKNIGEFCGKQRPPDLDTSSNAVDLLFFTDESGDSRGWKLRYTTEIIKCPQPKTLDEFTIIQNLQPQYQFRDYFIATCKQGYQLIEGNQVLHSFTAVCQDDGTWHRAMPRCKIKDCGQPRNLPNGDFRYTTTMGVNTYKARIQYYCHEPYYKMQTRAGSRESEQGVYTCTAQGIWKNEQKGEKIPRCLPVCGKPVNPVEQRQRIIGGQKAKMGNFPWQVFTNIHGRGGGALLGDRWILTAAHTLYPKEHEAQSNASLDVFLGHTNVEELMKLGNHPIRRVSVHPDYRQDESYNFEGDIALLELENSVTLGPNLLPICLPDNDTFYDLGLMGYVSGFGVMEEKIAHDLRFVRLPVANPQACENWLRGKNRMDVFSQNMFCAGHPSLKQDACQGDSGGVFAVRDPNTDRWVATGIVSWGIGCSRGYGFYTKVLNYVDWIKKEMEEED
B2: BBK32-C (residues 206-354, B. burgdorferi strain B31) (domain or fragment)
chain: SNRYQSYLEGVKYNVDSAIQTITKIYNTYTLFSTKLTQMYSTRLDNFAKAKAKEEAAKFTKEDLEKNFKTLLNYIQVSVKTAANFVYINDTHAKRKLENIEAEIKTLIAKIKEQSNLYEAYKAIVTSILLMRDSLKEVQGIIDKNGVWY
B3: BAD16-C (residues 204-352, B. afzelii strain PGau) (domain or fragment)
chain: SNRYESYLEGVKYNVSSAIKTIVKIYDNYTLLSTKQTQMYSTRLDNLAKAKAREEAKKFTKEELEKDLKTLLNYIQVSARTATNFVYAREIYSKRKLDAIETEIKNLVLKIKGQSDLYEAYKAIVRSILLMKDSLKIIEIVIDKNGVWY

The target in experiment [1] is B3. Kind of experiment: SPR. A general note: SPR reads the build-up and loss of mass on a sensor chip optically.
The target of the next experiment is human C1 complex (human, UniProt P02745 23-245; P02746 28-253; P02747 29-245). Kind of experiment: SPR.

B1 returned a Kd in experiment [1] of 2.2 nM. In other words, the single-digit nanomolar range.

B2 came in with a dissociation constant (Kd) with human C1 complex of 6 nM.

In the case of B3, in the experiment with human C1 complex, binding was characterised by a dissociation constant (Kd) of 5.4 nM. This Kd and that of the molecule before are within 1.5-fold of each other.

As usually defined, the Kd is the equilibrium constant for the complex coming apart.
